How the values were obtained:
Experiment in all cases: pull-down
[1] = molecular target: wild-type HOPS complex purified via Vps41-TAP (yeast, UniProt P38959;Q07468;P20795;P12868;Q03308;P27801)
[2] = molecular target: wild-type HOPS complex purified via Vps39-TAP (yeast, UniProt Q07468;P38959;P20795;P12868;Q03308;P27801)
[3] = molecular target: Vps41-Vps3-class C hybrid complex (yeast, UniProt P38959;P23643;P20795;P12868;Q03308;P27801)
[4] = molecular target: wild-type Vps39-Vps11 complex (yeast, UniProt Q07468;P12868)

Measured: binding result

Sequence of wild-type Vps39-Vps11 complex (Q07468 whole entry, chain 1 of 2): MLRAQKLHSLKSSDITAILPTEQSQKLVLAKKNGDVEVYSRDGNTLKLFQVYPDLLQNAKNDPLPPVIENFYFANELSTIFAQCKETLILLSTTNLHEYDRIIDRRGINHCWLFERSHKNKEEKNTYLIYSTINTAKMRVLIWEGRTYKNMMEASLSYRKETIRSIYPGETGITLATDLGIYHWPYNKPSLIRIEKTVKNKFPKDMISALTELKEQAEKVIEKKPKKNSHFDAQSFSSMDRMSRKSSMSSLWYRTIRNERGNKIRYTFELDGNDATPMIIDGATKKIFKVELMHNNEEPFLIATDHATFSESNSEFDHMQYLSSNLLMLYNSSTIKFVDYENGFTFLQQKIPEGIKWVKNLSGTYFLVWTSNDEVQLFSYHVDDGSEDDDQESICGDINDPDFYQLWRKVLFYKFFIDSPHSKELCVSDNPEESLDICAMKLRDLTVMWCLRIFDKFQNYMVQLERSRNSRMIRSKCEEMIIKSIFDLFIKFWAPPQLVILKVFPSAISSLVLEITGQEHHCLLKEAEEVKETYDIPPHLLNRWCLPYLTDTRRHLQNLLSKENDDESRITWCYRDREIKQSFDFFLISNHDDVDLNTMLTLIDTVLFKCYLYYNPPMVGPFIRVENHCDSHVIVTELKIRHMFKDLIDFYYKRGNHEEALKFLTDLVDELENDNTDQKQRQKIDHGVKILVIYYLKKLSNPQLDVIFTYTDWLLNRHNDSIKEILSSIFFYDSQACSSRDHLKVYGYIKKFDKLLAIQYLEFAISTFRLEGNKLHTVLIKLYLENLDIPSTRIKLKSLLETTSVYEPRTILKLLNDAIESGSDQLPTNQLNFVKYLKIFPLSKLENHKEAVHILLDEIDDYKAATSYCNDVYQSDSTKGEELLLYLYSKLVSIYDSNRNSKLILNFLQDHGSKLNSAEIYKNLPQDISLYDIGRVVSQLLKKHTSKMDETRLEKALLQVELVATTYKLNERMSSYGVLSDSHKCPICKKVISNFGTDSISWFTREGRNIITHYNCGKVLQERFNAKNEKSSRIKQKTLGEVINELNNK
Sequence of wild-type Vps39-Vps11 complex (P12868 whole entry, chain 2 of 2): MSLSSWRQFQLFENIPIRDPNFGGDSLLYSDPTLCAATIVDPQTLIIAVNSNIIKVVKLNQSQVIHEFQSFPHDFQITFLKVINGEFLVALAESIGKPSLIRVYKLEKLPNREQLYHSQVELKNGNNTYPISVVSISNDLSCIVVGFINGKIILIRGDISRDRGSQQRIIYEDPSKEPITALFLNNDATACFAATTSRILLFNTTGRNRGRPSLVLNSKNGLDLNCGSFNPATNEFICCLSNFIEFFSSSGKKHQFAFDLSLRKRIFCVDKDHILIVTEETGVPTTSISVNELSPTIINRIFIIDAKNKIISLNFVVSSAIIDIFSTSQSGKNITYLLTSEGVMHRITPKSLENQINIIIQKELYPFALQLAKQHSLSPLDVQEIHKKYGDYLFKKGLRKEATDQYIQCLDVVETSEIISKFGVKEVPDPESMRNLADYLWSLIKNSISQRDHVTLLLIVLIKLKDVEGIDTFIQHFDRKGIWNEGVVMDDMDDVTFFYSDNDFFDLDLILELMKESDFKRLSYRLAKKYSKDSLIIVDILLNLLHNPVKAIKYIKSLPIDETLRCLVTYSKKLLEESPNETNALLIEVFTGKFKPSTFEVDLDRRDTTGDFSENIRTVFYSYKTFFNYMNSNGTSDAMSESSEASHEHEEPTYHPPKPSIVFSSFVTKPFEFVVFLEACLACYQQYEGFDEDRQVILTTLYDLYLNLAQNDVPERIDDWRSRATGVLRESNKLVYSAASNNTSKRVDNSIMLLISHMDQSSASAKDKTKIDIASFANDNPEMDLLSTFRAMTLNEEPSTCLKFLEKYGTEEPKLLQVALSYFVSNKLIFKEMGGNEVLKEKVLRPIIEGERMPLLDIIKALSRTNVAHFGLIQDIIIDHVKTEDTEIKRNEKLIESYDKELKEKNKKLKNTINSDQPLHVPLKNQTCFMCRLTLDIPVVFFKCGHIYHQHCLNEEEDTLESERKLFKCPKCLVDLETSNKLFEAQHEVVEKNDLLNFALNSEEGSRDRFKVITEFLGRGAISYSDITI

B1: GST-Ypt7 (natural protein)
chain: MSSRKKNILKVIILGDSGVGKTSLMHRYVNDKYSQQYKATIGADFLTKEVTVDGDKVATMQVWDTAGQERFQSLGVAFYRGADCCVLVYDVTNASSFENIKSWRDEFLVHANVNSPETFPFVILGNKIDAEESKKIVSEKSAQELAKSLGDIPLFLTSAKNAINVDTAFEEIARSALQQNQADTEAFEDDYNDAINIRLDGENNSCSC
binds: [1] | [2] | [3] | [4]

— publication PMC5231900 (Molecular Biology of the Cell, 2017)
